Laboratory results taken from US20250262210A1 (TRUSTEES OF COLUMBIA UNIVERSITY IN THE CITY OF NEW YORK, published 2025).

Key:
Experiment in all cases: IP/MS, LZTR1 R810W-FLAG, U87
[1] = target: CDC42BPB (human, UniProt Q9Y5S2 1-1711)
Outline: (§1)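 Extracted peptides in 3% acetonitrile/0.1% formic acid ran on a 50 cm C18 column into an Orbitrap Fusion, with MaxQuant identification and spectral counting.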

[2] = target: DPP9 (human, UniProt Q86TI2 2-863, limits assumed)
Outline: as §1

[3] = target: T1, PPFIBP1 (human, UniProt Q86W92 1-1011, limits assumed)
T1 sequence (looked up): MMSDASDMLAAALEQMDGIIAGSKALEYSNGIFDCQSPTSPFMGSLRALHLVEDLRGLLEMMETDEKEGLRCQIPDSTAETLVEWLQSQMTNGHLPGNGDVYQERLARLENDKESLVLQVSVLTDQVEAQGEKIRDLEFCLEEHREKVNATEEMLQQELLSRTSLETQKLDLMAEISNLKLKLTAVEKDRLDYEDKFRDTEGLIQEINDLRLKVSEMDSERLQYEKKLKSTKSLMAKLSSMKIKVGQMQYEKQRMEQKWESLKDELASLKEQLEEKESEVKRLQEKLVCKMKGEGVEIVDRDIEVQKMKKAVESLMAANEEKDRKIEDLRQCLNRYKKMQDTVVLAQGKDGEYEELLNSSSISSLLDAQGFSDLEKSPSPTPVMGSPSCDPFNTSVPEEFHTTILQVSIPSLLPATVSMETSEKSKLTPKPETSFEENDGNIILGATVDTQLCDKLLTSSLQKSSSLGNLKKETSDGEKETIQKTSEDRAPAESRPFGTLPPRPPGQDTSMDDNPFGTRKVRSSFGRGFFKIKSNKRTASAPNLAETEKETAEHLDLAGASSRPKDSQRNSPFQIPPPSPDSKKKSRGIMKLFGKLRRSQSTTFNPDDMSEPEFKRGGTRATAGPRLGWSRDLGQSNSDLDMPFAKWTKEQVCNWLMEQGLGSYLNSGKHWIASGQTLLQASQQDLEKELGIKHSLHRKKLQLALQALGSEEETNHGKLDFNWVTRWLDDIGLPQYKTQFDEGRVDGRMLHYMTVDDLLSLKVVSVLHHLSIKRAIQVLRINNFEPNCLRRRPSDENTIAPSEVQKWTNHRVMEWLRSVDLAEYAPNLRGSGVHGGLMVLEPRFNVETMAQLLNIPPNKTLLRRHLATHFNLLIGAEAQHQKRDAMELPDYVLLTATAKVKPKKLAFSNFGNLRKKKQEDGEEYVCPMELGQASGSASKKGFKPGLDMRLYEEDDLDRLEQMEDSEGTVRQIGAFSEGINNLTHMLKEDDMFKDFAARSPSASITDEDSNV
Outline: as §1

[4] = target: T2, CC2D1A (human, UniProt Q6P1N0 1-951, limits assumed)
T2 sequence (looked up): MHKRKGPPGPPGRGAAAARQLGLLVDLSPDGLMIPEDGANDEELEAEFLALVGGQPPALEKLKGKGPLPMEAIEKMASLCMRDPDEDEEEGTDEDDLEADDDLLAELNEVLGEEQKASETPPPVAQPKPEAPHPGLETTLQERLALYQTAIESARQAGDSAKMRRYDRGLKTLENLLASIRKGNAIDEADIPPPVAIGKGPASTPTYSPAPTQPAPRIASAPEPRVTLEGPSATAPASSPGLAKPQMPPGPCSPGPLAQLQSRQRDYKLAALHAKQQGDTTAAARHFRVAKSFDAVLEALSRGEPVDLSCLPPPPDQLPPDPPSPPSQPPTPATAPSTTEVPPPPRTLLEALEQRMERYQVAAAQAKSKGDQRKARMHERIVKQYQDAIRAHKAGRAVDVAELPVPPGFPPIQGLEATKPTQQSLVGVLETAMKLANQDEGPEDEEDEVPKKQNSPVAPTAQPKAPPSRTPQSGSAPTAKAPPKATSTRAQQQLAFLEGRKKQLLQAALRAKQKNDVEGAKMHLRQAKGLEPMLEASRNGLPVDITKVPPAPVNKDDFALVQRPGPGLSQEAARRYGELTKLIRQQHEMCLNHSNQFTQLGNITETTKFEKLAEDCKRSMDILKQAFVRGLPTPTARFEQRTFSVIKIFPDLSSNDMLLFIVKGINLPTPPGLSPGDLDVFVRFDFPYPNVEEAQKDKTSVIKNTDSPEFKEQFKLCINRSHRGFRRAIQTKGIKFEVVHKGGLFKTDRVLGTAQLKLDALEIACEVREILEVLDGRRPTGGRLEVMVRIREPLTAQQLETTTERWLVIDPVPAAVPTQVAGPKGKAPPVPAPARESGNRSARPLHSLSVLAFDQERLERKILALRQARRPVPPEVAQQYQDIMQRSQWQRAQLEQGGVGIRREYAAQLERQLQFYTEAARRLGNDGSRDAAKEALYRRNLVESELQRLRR
Outline: as §1

[5] = target: KIF1B (human, UniProt O60333 2-1816, limits assumed)
Sequence of KIF1B (O60333 2-1816 limits assumed): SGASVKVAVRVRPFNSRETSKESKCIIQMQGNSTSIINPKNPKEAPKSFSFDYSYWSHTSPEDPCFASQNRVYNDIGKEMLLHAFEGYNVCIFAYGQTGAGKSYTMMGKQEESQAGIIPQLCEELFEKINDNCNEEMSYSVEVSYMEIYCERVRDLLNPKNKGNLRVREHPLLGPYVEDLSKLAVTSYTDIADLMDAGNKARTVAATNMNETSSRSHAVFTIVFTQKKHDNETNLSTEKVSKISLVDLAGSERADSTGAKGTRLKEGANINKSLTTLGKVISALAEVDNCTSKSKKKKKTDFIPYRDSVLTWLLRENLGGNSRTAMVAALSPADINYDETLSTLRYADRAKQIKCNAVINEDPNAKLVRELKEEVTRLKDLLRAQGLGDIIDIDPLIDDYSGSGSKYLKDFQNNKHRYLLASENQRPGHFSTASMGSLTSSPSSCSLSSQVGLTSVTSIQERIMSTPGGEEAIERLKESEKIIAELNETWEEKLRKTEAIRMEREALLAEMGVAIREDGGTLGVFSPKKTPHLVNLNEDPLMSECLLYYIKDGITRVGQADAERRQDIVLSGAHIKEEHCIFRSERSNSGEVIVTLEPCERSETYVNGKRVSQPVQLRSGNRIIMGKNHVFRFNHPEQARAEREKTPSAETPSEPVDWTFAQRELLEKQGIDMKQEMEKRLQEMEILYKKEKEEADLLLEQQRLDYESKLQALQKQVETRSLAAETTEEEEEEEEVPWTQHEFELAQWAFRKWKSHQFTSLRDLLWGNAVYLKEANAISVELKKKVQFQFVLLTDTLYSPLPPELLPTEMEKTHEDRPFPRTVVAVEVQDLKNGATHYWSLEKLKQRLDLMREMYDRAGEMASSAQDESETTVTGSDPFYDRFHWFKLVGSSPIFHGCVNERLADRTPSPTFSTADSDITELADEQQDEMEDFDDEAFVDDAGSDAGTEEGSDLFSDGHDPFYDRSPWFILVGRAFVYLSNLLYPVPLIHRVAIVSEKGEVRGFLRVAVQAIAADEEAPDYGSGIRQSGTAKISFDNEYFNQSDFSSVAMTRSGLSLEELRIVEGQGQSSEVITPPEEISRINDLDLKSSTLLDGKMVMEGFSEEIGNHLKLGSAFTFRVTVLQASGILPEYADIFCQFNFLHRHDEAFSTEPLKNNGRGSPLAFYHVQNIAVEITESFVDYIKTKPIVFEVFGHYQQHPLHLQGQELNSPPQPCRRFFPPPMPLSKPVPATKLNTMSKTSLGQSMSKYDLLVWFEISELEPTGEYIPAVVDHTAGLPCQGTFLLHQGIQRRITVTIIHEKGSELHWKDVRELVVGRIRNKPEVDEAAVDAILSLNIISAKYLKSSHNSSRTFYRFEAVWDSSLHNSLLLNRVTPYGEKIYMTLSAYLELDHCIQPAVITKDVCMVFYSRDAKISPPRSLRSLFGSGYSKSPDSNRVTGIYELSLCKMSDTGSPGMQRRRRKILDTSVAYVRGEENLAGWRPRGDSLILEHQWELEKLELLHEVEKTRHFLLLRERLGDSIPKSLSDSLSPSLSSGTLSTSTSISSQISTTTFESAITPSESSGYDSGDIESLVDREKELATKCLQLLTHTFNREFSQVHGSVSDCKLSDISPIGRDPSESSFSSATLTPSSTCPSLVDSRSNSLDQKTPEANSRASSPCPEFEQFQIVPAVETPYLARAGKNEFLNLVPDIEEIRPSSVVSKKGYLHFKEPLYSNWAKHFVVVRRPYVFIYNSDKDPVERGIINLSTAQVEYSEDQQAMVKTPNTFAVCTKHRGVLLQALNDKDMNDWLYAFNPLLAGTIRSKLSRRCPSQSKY
Outline: as §1

Measured: binding result

Sequence of CDC42BPB (Q9Y5S2 whole entry, the tested form may be a part): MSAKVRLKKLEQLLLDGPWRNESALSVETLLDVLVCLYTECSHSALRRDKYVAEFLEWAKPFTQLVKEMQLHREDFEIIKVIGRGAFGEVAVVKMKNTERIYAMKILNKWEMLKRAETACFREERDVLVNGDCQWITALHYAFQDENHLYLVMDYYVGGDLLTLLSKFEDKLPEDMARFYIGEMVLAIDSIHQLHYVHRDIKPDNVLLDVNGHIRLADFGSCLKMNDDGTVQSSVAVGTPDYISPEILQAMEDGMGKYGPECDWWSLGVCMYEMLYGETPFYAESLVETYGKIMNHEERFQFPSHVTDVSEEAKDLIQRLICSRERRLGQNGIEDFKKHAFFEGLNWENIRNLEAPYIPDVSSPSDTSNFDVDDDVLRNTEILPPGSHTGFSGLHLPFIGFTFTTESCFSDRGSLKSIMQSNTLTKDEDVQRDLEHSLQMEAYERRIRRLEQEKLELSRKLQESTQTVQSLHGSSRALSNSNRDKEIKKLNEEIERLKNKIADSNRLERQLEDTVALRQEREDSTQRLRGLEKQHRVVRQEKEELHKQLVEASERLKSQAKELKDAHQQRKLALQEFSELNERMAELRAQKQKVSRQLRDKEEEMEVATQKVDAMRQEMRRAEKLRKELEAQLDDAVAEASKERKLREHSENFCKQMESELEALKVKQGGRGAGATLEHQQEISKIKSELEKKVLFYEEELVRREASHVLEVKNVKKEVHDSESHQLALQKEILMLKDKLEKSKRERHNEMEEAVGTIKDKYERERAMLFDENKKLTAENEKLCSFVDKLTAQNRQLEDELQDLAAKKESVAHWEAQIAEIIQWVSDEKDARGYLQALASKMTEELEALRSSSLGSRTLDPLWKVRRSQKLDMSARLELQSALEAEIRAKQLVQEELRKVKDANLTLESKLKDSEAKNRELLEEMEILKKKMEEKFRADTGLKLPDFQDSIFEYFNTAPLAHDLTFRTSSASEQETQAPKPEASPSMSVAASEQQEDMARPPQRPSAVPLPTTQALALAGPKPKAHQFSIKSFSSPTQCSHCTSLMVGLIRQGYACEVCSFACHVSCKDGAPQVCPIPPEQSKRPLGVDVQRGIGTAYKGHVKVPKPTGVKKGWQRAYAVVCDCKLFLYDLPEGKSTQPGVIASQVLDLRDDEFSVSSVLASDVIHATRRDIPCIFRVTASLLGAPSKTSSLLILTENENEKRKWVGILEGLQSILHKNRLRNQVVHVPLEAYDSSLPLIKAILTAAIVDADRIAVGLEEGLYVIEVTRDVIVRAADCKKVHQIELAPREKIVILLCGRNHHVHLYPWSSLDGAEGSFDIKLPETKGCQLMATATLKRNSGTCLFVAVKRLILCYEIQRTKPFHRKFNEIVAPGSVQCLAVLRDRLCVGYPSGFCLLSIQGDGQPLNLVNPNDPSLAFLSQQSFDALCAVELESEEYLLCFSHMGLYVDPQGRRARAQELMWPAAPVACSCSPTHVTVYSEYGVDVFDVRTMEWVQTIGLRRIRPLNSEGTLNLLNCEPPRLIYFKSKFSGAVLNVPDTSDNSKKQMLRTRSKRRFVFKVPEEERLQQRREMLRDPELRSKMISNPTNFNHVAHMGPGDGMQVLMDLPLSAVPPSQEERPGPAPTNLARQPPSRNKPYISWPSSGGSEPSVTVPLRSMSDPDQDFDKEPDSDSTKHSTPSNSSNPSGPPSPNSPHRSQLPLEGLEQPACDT
Sequence of DPP9 (Q86TI2 2-863 limits assumed): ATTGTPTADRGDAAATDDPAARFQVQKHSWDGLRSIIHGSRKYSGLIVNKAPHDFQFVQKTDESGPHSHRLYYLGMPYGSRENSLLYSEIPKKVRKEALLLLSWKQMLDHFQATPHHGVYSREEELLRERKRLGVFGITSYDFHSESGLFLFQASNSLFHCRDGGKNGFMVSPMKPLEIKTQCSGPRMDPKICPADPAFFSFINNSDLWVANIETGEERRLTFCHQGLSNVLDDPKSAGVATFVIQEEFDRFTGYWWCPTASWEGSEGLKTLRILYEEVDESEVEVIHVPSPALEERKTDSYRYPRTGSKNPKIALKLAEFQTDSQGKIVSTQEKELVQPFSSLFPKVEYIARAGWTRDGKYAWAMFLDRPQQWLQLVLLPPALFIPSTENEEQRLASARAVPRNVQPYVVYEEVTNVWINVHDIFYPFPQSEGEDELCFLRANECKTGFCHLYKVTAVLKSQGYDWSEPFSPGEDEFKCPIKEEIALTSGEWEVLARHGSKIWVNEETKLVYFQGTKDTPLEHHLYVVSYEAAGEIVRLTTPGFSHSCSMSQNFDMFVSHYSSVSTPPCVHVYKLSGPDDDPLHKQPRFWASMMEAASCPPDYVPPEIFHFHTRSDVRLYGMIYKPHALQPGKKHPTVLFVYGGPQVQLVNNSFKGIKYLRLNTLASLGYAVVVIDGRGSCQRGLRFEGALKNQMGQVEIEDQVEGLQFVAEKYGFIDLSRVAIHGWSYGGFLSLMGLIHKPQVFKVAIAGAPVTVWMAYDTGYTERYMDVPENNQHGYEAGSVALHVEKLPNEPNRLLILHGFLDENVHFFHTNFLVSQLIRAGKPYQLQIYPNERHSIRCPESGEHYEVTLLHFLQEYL

B1: LZTR1 R810W-FLAG (other, human, UniProt Q8N653 1-840, looked up)
chain: MAGPGSTGGQIGAAALAGGARSKVAPSVDFDHSCSDSVEYLTLNFGPFETVHRWRRLPPCDEFVGARRSKHTVVAYKDAIYVFGGDNGKTMLNDLLRFDVKDCSWCRAFTTGTPPAPRYHHSAVVYGSSMFVFGGYTGDIYSNSNLKNKNDLFEYKFATGQWTEWKIEGRLPVARSAHGATVYSDKLWIFAGYDGNARLNDMWTIGLQDRELTCWEEVAQSGEIPPSCCNFPVAVCRDKMFVFSGQSGAKITNNLFQFEFKDKTWTRIPTEHLLRGSPPPPQRRYGHTMVAFDRHLYVFGGAADNTLPNELHCYDVDFQTWEVVQPSSDSEVGGAEVPERACASEEVPTLTYEERVGFKKSRDVFGLDFGTTSAKQPTQPASELPSGRLFHAAAVISDAMYIFGGTVDNNIRSGEMYRFQFSCYPKCTLHEDYGRLWESRQFCDVEFVLGEKEECVQGHVAIVTARSRWLRRKITQARERLAQKLEQEAAPVPREAPGVAAGGARPPLLHVAIREAEARPFEVLMQFLYTDKIKYPRKGHVEDVLLIMDVYKLALSFQLCRLEQLCRQYIEASVDLQNVLVVCESAARLQLSQLKEHCLNFVVKESHFNQVIMMKEFERLSSPLIVEIVRRKQQPPPRTPLDQPVDIGTSLIQDMKAYLEGAGAEFCDITLLLDGHPRPAHKAILAARSSYFEAMFRSFMPEDGQVNISIGEMVPSRQAFESMLRYIYYGEVNMPPEDSLYLFAAPYYYGFYNNRLQAYCKQNLEMNVTVQNVLQILEAADKTQALDMKRHCLHIIVHQFTKVSKLPTLWSLSQQLLLDIIDSLASHISDKQCAELGADI
notes: Stably expressed in U87 cells by lentivirus; also called LZTR1-FLAG-R810W; LZTR1 RW; not shown: FLAG tag
binds: [1] | [2] | [3] | [4] | [5]
